From PMC11594144

Key:
[1] = molecular target: Vip3Aa64 protoxin, wild type (Bacillus thuringiensis); experiment: mass photometry
[2] = molecular target: Vip3Aa64 protoxin, wild type (Bacillus thuringiensis); experiment: AUC

“Vip3Aa64 protoxin, wild type (natural protein)” showed a stoichiometry N [1] of 4 and a stoichiometry N [2] of 4.
